This is an account of results in patent US12006368 (SURROZEN OPERATING, dated 2024).

In experiment [1] the target is T1, Fzd1 cysteine rich domain (CRD), C-terminally biotinylated (human, UniProt Q9UP38 101-230). Kind of experiment: BLI; *=Kd <=100 nM. The protocol: (§1) Binding kinetics of antibody fragments to a variety of Fzd cysteine rich domain (CRD) protein targets (Fzd1, Fzd2, Fzd3, Fzd4, Fzd5, Fzd6, Fzd7, Fzd8, Fzd9 and/or Fzd10 CRDs) was determined by bio-layer interferometry (BLI) using Octet Red 96 (PALL ForteBio, Fremont, CA) instruments at 30° C., 1000 rpm with streptavidin (SA) biosensors. C-terminal biotinylated Fzd CRD recombinant protein was diluted to 20 nM in the running buffer (PBS, 0.05% Tween-20, 0.5% BSA, pH 7.2) and captured to the SA biosensor until coupling length reached 0.2 nm. Following capture of the Fzd CRD, the SA biosensor with captured biotinylated-Fzd CRD was dipped into wells containing the relevant antibody fragment at […] (0, 1.37, 4.12, 12.4, 37, 111.1, 333.3, 1000 nM) in running buffer, plus a well with only running buffer as a reference channel. […] was determined by global fitting, 1:1 binding model according to manufacturer recommended settings.
One antibody fragment, clone 001S-A04, was selected for alanine-scanning mutagenesis of CDRs, and the respective Fzd1 binding affinities of the various mutants were determined by Octet BLI as described in Example 1.
Background: In BLI a coated tip is dipped into the sample, and binding shifts an interference pattern.

Experiment [2] has as its target T1, Fzd1 cysteine rich domain (CRD), …. Description: BLI; *=Kd <100 nM. Here is the method: as §1
(§2) Table 1B provides clone IDs, the sequence identifier number of the antibody heavy chain fragment and/or light chain fragment, if present, for illustrative clones. In certain embodiments, the Fzd binding domain is an Fab or was derived from an Fab, so the heavy chain of Table 1B includes VH and CH1 sequence, but not CH2 or CH3 sequences. In certain embodiments, the Fzd binding domain is a VHH or sdAb® or was derived from a VHH or sdAb, so Table 1B includes the VHH domain. […] The Kd values were determined by BLI as described above. Blank entries denote that the binding to the specific Fzd receptor has not yet been determined. The entry of "n.b." indicates no binding.

Experiment [3] deals with Fzd7 cysteine rich domain (CRD), C-terminally biotinylated (human, UniProt O75084 36-165). Kind of experiment: BLI; *=Kd <100 nM. The protocol: as §1, §2
Experiment [4] concerns the target T2, Fzd2 cysteine rich domain (CRD), C-terminally biotinylated (human, UniProt Q14332 24-155). Description: BLI; *=Kd <100 nM. Here is the method:
as §1, §2

Experiment [5] concerns the target T3, hFzd5 CRD-Xtal (hFzd5_Q13467_27-152) (human, UniProt Q13467 27-152).
T3 construct: complex incubated with carboxypeptidase A and B before crystallisation
T3 sequence: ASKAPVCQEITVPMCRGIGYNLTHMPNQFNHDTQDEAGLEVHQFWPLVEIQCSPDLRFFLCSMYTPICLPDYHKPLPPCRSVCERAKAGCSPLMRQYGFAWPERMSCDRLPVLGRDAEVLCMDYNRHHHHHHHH
Description: size-exclusion chromatography of the Fzd CRD_Xtal:Fab mixture. Here is the method:
(§3) Purfied Fzd CRD_Xtal and Fab binders were mixed at 1.1:1 molar ratio (little excess of the smaller molecular weight protein), and incubated with carboxy-peptidase A and B at a w/w ratio of 100:1 for over-night at 4° C. Complex formation was confirmed by observation of a single-major peak on SuperdexS200 Increase (10/300 GL) column pre-equilibrated in HBS. Fractions containing complexes were further checked by SDS-PAGE, and concentrated to a range from 10 to 55 mg/mL for crystallization screens. Initial crystallization screen, using commercially available MCSG1, MCSG2, MCSG3, MCSG4, PACT (Molecular Dimensions), PEGs I, and PEGs II (Qiagen) screen, and optimization by grid-screens or microseed matrix screen [MMS; Microseed matrix screening for optimization in protein crystallization: what have we learned? D'Arcy, A., Bergfors, T., Cowan-Jacob S. W., and Marshd, M. Acta Cryst. F70, 1117-1126 (2014)]. were performed using Mosquito (TTP LabTech) liquid handler, and equilibrated at 18° C. inside an EchoTherm incubator (Torrey Pines Scientific). 96-well plate crystal screening experiments were periodically monitored manually via a DiscoveryV20 stereomicroscope (Zeiss), and crystals were frozen for data collection by plunging into liquid nitrogen in the presence of various cryo-protectants (typically 15 to 30% v/v of glycerol or ethyleneglycol). X-ray diffraction datasets were collected at the Berkeley Center for Structural Biology at the Advanced Light Source (ALS), Berkeley CA, and processed with XDS [Kabsch, W. XDS. Acta Cryst. D66, 125-132 (2010)], and xdsme [Legrand, P. XDSME: XDS Made Easier (2017) GitHub repository, https://github-.com/legrandp/xdsme DOI 10.5281/zenodo.837885]. programs. Structure of Fzd:Fab complexes were determined by molecular replacement method using Phaser with constant and variable domains of related Fabs are template [Phaser crystallographic software. A. J. McCoy, R. W. Grosse-Kunstleve, P. D. Adams, M. D. Winn, L. C. Storoni, and R. J. Read. J Appl Crystallogr 40, 658-674 (2007)], followed by refinement and validation by MolProbity as implemented in Phenix [PHENIX: a comprehensive Python-based system for macromolecular structure solution.
On the technique in general: SEC sorts molecules by how far they enter the pores of the column.

Experiment [6] addresses T4, Fzd5 (UniProt Q13467 27-152, limits assumed).
T4 construct: immobilised target antigen of the phage ELISA and the Fzd named in specificity sentences; also called Frizzled 5; Fz5
T4 sequence (looked up): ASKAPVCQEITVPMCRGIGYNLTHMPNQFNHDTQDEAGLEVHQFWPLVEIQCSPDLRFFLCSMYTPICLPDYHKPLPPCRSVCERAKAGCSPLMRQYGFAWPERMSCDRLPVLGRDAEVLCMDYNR
Description: phage ELISA on immobilised antigen. The protocol: (§4) Detection of bound phage was determined […] by turnover of TMB substrate (Thermo Fisher Scientific, Waltham, MA) at […] by anti-M13-HRP antibody (GE Healthcare, Pittsburgh, PA). Clones were identified as binding to a Fzd receptor when the fold OD 450 nm over background was greater than a threshold level.
For orientation: ELISA stands for enzyme-linked immunosorbent assay.

Experiment [7] deals with T5, Frizzled 6 (human, UniProt O60353 19-145, limits assumed).
T5 construct: the antigen of the phage ELISA is only called 'target antigen'; also called Fzd6; Fz6
T5 sequence (looked up): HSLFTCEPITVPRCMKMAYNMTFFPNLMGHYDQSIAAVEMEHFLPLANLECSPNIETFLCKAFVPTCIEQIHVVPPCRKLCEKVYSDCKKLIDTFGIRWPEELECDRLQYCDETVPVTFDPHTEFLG
Description: phage ELISA on immobilized antigen (initial binding). Here is the method: as §4

The target of experiment [8] is hFzd1 CRD-Xtal (hFzd1_Q9UP38_101-230) (human, UniProt Q9UP38 101-230). Kind of experiment: size-exclusion chromatography of the Fzd CRD_Xtal:Fab mixture. The protocol: as §3
The target in experiment [9] is T6, hFzd3 CRD-Xtal (hFzd3_Q9NPG1_23-148) (human, UniProt Q9NPG1 23-148).
T6 construct: complex incubated with carboxypeptidase A and B before crystallisation
T6 sequence: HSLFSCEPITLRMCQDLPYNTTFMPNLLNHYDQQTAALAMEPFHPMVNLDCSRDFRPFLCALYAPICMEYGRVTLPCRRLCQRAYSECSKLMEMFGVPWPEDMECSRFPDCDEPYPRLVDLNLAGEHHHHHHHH
The description is as above. The protocol: as §3

Experiment [10] concerns the target T7, Frizzled 3 (human, UniProt Q9NPG1 23-148, limits assumed).
T7 construct: Target antigen immobilised on plates in the phage ELISA; also called Fzd3; Fz3
T7 sequence (looked up): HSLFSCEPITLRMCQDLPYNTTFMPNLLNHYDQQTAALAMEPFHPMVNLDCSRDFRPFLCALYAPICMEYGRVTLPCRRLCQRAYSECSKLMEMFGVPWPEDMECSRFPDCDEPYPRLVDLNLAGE
Kind of experiment: phage ELISA on immobilised antigen (initial binding). Here is the method: as §4

For experiment [11], the target named is T2, Fzd2 cysteine rich domain (CRD), …. Kind of experiment: BLI; **=Kd 100-2000 nM. Here is the method: as §1, §2

B1: 001S-A04 (Fab, V domains shown)
VH: EVQLVQSGAEVKKPGASVKVSCKASGYTFTSYGISWVRQAPGQGLEWMGWISAYNGNTNYAQKLQGRVTMTTDTSTSTAYMELRSLRSDDTAVYYCASSKEKATYYYGMDVWGQGTTVTVSS
VL: QAVVLQEPSLSVSPGGTVTLTCGLSSGSVSTNYYPSWYQQTPGQAPRTLIYYTNTRSSDVPERFSGSIVGNKAALTITGAQPDDESVYFCLLYLGRGIWVFGGGTKLTVLG
notes: also called R2M3; WT
B1 registered a KD in experiment [1] not above 100 nM. Also, the Kd in [2], in experiment [3] and in [4] was less than 100 nM each time.

B2: 004S-E05 Fab (Fab, V domains shown)
VH: EVQLVESGGGLVQPGGSLRLSCAASGFTFSTYEMNWVRQAPGKGLEWVSGVSWNGSRTHYVDSVKGRFTISRDNSKNTLYLQLNSLRAEDTAVYYCARGQSEKWWSGLYGMDVWGQGTTVTVSS
VL: DIQMTQSPSSLSASVGDRVTITCRASQGISSALAWYQQKPGKAPKLLIYAASALQSGVPSRFSGSGSGTDFTLTISSLQPEDFATYYCQQTYSTPRTFGPGTKVDIKR
notes: Fab chains as crystallised (heavy chain with hexa-histidine tag); also called 004S-E050
Consider B2, for which the binding result in experiment [5] and in experiment [6] was “binds” each time.

B3: 004S-E09 (antibody, V domains shown)
VH: QVQLVQSGAEVKKPGASVKVSCKASGDTFSNYVISWVRQAPGQGLEWMGRISAYNGYKSYAQNFQGRVTMTRDTSTSTVYMELSSLRSEDTAVYYCARSSGYVGWFDPWGQGTLVTVSS
VL: not shown
Consider B3, for which the binding result in [7] is listed as “binds”.

B4: R2M9 (003S-E07) Fab (Fab, V domains shown)
VH: QVQLVQSGAEVKKPGSSVKVSCKASGYTFTNNFMHWVRQAPGQGLEWMGWINPNSGGTKYAQKFQGRVTITADESTSTAYMELSSLRSEDTAVYYCARSVGEVGATMLGIGVWYWFDPWGQGTLVTVSS
VL: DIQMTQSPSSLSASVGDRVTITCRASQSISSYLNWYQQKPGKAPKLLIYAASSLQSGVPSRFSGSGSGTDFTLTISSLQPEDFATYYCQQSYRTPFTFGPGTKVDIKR
notes: heavy chain with C-terminal hexa-histidine tag; carboxypeptidase A and B treated in the complex
Consider B4, for which, in experiment [8], the binding result was “binds”.

B5: 4A12 Fab (Fab, V domains shown)
VH: QVQLQQSGPELVKPGASVKLSCKASGYTFTNYDINWVKQRPGQGLEWIGWIYPRDGSTKYNEKFKGKATLTVDTSSSTAYMELHSLTSEDSAVYFCVRSAWGFAYWGQGTLVTVSA
VL: DIVMTQSHKFMSTSVGDRVSITCKASQDVGTAVAWYQQKPGQSPKLLIYWASTRHTGVPDRFTGSGSGTDFTLTINNVQSEDLADYFCQQYSTYPLTFGAGTKLELKR
notes: as for B4
Regarding B5, the binding result in experiment [5] is listed as “binds”.

B6: 029S-E03 Fab (Fab, V domains shown)
VH: QVQLVQSGAEVKKPGASVKVSCKASGYTFTGYYMHWVRQAPGQGLEWMGWINPNSGNTGYAQKFQGRVTMTRDTSTSTVYMELSSLRSEDTAVYYCARSYYGVIDAFDIWGQGTMVTVSS
VL: DIQMTQSPSSLSASVGDRVTITCRASQSISSYLNWYQQKPGKAPKLLIYAASSLQTGVPSRFSGSGSGTDFTLTISSLQPEDFATYYCQQSFRLPLTFGQGTKVEIKR
notes: as for B4
Consider B6, for which the binding result in [9] is reported as “binds”.

B7: 029S-E03 (Fab, V domains shown)
VH: QVQLVQSGAEVKKPGASVKVSCKASGYTFTGYYMHWVRQAPGQGLEWMGWINPNSGNTGYAQKFQGRVTMTRDTSTSTVYMELSSLRSEDTAVYYCARSYYGVIDAFDIWGQGTMVTVSS
VL: DIQMTQSPSSLSASVGDRVTITCRASQSISSYLNWYQQKPGKAPKLLIYAASSLQTGVPSRFSGSGSGTDFTLTISSLQPEDFATYYCQQSFRLPLTFGQGTKVEIKR
Turning to B7, the binding result in [10] is “binds”.

B8: 001S-E02 (Fab, V domains shown)
VH: QVQLQESGPGLVKPSETLSLTCTVSGGSISGNNYYWGWIRQPPGKGLEWIGSIYFTGGTYYNPSLKSRVTISVDTSKNQFSLKLSSVTAADTAVYYCARVMLITDAFDIWGQGTMVTVSS
VL: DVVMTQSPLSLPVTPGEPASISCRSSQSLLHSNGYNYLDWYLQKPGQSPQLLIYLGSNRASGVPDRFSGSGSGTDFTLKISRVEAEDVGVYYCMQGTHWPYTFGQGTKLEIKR
In the case of B8, the Kd is less than 100 nM in [2], less than 100 nM in [3] and 100 to 2000 nM in experiment [11].

A word on the KD: it is the constant that tells how readily two partners part at equilibrium. A lower KD goes with a tighter complex. For orientation: Kd means a measure of binding affinity in units of concentration. Read a high Kd as lower affinity.
